Where no end group is shown, it is not given here.

B1: Phage-461 (peptide)
peptide: WCWDYREWVPMTCP
modifications: cysteine pairing not given here; also: displayed as fusion to phage pIII, linker and pIII sequence not given here
notes: Clonal phage supernatant; also called Peptide-82; not shown: fused to the pIII filament protein of the bacteriophage
B2: Phage-467 (peptide)
peptide: WCWYYREWVPMTCP
modifications: cysteine pairing not given here; also: displayed as fusion to phage pIII, linker and pIII sequence not given here
notes: Clonal phage supernatant; also called Peptide-88; not shown: fused to the pIII filament protein of the bacteriophage
B3: Phage-457 (peptide)
peptide: PDCQTILFKPWCVR
modifications: cysteine pairing not given here; also: displayed as fusion to phage pIII, linker and pIII sequence not given here
notes: Clonal phage supernatant; also called Peptide-78; not shown: fused to the pIII filament protein of the bacteriophage
B4: Phage-455 (peptide)
peptide: WECLKYTEANACTY
notes: Clonal phage supernatant; also called Peptide-76; not shown: fused to the pIII filament protein of the bacteriophage
B5: Phage-459 (peptide)
peptide: GCQYPWAFDAMSCP
modifications: cysteine pairing not given here; also: displayed as fusion to phage pIII, linker and pIII sequence not given here
notes: Clonal phage supernatant; also called Peptide-80; not shown: fused to the pIII filament protein of the bacteriophage
B6: Phage-471 (peptide)
peptide: SCAAGASYAWPYCL
notes: Clonal phage supernatant; also called Peptide-92; not shown: fused to the pIII filament protein of the bacteriophage
B7: Phage-456 (peptide)
peptide: FMCLPQNPHPLCFK
notes: Clonal phage supernatant; also called Peptide-77; not shown: fused to the pIII filament protein of the bacteriophage
B8: Phage-460 (peptide)
peptide: WCWDYKLWVPTQCP
modifications: cysteine pairing not given here; also: displayed as fusion to phage pIII, linker and pIII sequence not given here
notes: Clonal phage supernatant; also called Peptide-81; not shown: fused to the pIII filament protein of the bacteriophage
B9: Phage-462 (peptide)
peptide: ECHWSMWAVGHACF
modifications: cysteine pairing not given here; also: displayed as fusion to phage pIII, linker and pIII sequence not given here
notes: Clonal phage supernatant; also called Peptide-83; not shown: fused to the pIII filament protein of the bacteriophage
B10: Phage-454 (peptide)
peptide: YWSCFQIPFTCFYF
notes: Clonal phage supernatant; also called Peptide-75; not shown: fused to the pIII filament protein of the bacteriophage
B11: Phage-458 (peptide)
peptide: ACDTYFAGMINECF
modifications: cysteine pairing not given here; also: displayed as fusion to phage pIII, linker and pIII sequence not given here
notes: Clonal phage supernatant; also called Peptide-79; not shown: fused to the pIII filament protein of the bacteriophage

The first test has as its target T1, Anti-CD28 Fab (SEQ ID NOs: 696, 697).
T1 construct: Biotinylated and captured on neutravidin coated plates in the phage ELISA
As to the kind of experiment: phage binding ELISA on captured anti-CD28 Fab; competitor CD28 antigen.
For the molecule B1, the “Anti-CD28 Fab signal in the presence of CD28” value (“Anti-CD28 Fab signal” below) stood at 0.08. Still for that read-out and setting: then B2, with 0.07; and B3, with 0.06.

For the molecule B4, the “Anti-CD28 Fab signal” value is 0.07. On the same count and under the same terms, the result for B5 reads 0.07; that for B6, 0.05; that for B7, 0.06. Regarding B8, the “Anti-CD28 Fab signal” value worked out at 0.14.

Turning to B9, the “Anti-CD28 Fab signal” value came out at 0.07. Still for that read-out and setting: the result for B10 reads 0.27.

With B11, the “Anti-CD28 Fab signal” value was determined as 0.1.

For the next test, the target named is Ab-15. As to the kind of experiment: binding ELISA: biotinylated peptide on neutravidin plate, Ab-15 titrated.
IDWCPRDLWVHCFA (cysteine pairing not given here; also: biotinylated, site not given here, CD28 peptide mask) [Peptide-60] gave an EC50 of 44.9 nM.

For LDWCPRDLWVHCFA (cysteine pairing not given here; also: biotinylated, site not given here, CD28 peptide mask) [Peptide-61], it took 23.4 nM to reach a half-maximal effect (EC50). The same measure, in the same setting: the result for YDWCPRDLWVHCFA (cysteine pairing not given here; also: biotinylated, site not given here, CD28 peptide mask) [Peptide-68] reads 32.2 nM; that for PDWCPRDLWVHCFA (cysteine pairing not given here; also: biotinylated, site not given here, CD28 peptide mask) [Peptide-64], 102 nM; that for VDWCPRDLWVHCFA (cysteine pairing not given here; also: biotinylated, site not given here, CD28 peptide mask) [Peptide-69], 32.5 nM. FDWCPRDLWVHCFA (cysteine pairing not given here; also: biotinylated, site not given here, CD28 peptide mask) [Peptide-63]: a half-maximal effect (EC50) was put at 39.3 nM.

WDWCPRDLWVHCFA (cysteine pairing not given here; also: biotinylated, site not given here, CD28 peptide mask) [Peptide-67]: the EC50 stood at 21.7 nM. As for SDWCPRDLWVHCFA (cysteine pairing not given here; also: biotinylated, site not given here, CD28 peptide mask) [Peptide-65], the EC50 turned out to be 66.5 nM.

The target in a further test is Ab-15. Kind of test: BLI (Octet): sensor loaded with 200 nM biotinylated peptide, 100 nM Ab-15.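 Note: binding association and dissociation tracked in real time, fitted to a 1:1 binding model.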
In turn, IDWCPRDLWVHCFA (cysteine pairing not given here; also: biotinylated, site not given here, CD28 peptide mask) [Peptide-60] showed an Octet signal of 0.845 and a t1/2 of 3.1 min.

LDWCPRDLWVHCFA (cysteine pairing not given here; also: biotinylated, site not given here, CD28 peptide mask) [Peptide-61] showed an Octet signal of 1.37 and a t1/2 of 4.5 min. The like results for YDWCPRDLWVHCFA (cysteine pairing not given here; also: biotinylated, site not given here, CD28 peptide mask) [Peptide-68] were, in that order, 0.849 and 2.9 min. The like results for PDWCPRDLWVHCFA (cysteine pairing not given here; also: biotinylated, site not given here, CD28 peptide mask) [Peptide-64] were, in that order, 0.328 and 3.4 min. For VDWCPRDLWVHCFA (cysteine pairing not given here; also: biotinylated, site not given here, CD28 peptide mask) [Peptide-69] the same measures were 0.919 and 2.9 min. The molecule FDWCPRDLWVHCFA (cysteine pairing not given here; also: biotinylated, site not given here, CD28 peptide mask) [Peptide-63] registered an Octet signal of 1.01 and a t1/2 of 3.3 min.

Regarding WDWCPRDLWVHCFA (cysteine pairing not given here; also: biotinylated, site not given here, CD28 peptide mask) [Peptide-67], the Octet signal came out at 1.15 and the t1/2 amounted to 4.1 min. The like results for SDWCPRDLWVHCFA (cysteine pairing not given here; also: biotinylated, site not given here, CD28 peptide mask) [Peptide-65] were, in that order, 0.551 and 2.9 min.

The target of a further test is Ab-15. Kind of test: competition ELISA: peptide titrated against 1 nM Ab-15; competitor plate-bound CD28.
As to IDWCPRDLWVHCFA (cysteine pairing not given here; also: biotinylated, site not given here, CD28 peptide mask) [Peptide-60], the IC50 is 2660 nM. The same measure, in the same setting: then LDWCPRDLWVHCFA (cysteine pairing not given here; also: biotinylated, site not given here, CD28 peptide mask) [Peptide-61], with 630 nM; and YDWCPRDLWVHCFA (cysteine pairing not given here; also: biotinylated, site not given here, CD28 peptide mask) [Peptide-68], with 3250 nM. Same read-out and setting: then PDWCPRDLWVHCFA (cysteine pairing not given here; also: biotinylated, site not given here, CD28 peptide mask) [Peptide-64], with 8340 nM; and VDWCPRDLWVHCFA (cysteine pairing not given here; also: biotinylated, site not given here, CD28 peptide mask) [Peptide-69], with 4420 nM; and FDWCPRDLWVHCFA (cysteine pairing not given here; also: biotinylated, site not given here, CD28 peptide mask) [Peptide-63], with 780 nM.

In the case of WDWCPRDLWVHCFA (cysteine pairing not given here; also: biotinylated, site not given here, CD28 peptide mask) [Peptide-67], the IC50 turned out to be 2800 nM. Compared with the last molecule, the IC50 is about 3.6-fold higher.

As to SDWCPRDLWVHCFA (cysteine pairing not given here; also: biotinylated, site not given here, CD28 peptide mask) [Peptide-65], the 50% inhibitory concentration (IC50) amounted to 2630 nM. The IC50 values of the last two molecules are within 1.5-fold of each other.

Another test addresses T1, Anti-CD28 Fab (SEQ ID NOs: 696, 697). Kind of test: phage binding ELISA; biotinylated anti-CD28 Fab on neutravidin plate, anti-M13 HRP detection.
On to B1, for which the “Anti-CD28 Fab (SEQ ID NOs: 696, 697) signal” value was found to be 2.3. Take B2: the “Anti-CD28 Fab (SEQ ID NOs: 696, 697) signal” value was 1.85. The same measure, in the same setting: the result for B3 reads 2.09. On the same count and under the same terms, then B4, with 1.55; and B5, with 2.38; and B6, with 1.49.

In the case of B7, the “Anti-CD28 Fab (SEQ ID NOs: 696, 697) signal” value stood at 0.84. Take B8: the “Anti-CD28 Fab (SEQ ID NOs: 696, 697) signal” value turned out to be 2.27. Same read-out and setting: then B9, with 1.77; and B10, with 1.44. Turning to B11, the “Anti-CD28 Fab (SEQ ID NOs: 696, 697) signal” value was found to be 0.92.

In the next test the target is anti-CD28 Fab. As to the kind of experiment: competition ELISA, peptide titrated 0-100 uM against 1 nM anti-CD28 Fab, plate-bound CD28 as competitor.
TCSAGATYEWPRCL [Peptide-149]: the concentration for half-maximal inhibition (IC50) is 2660 nM. Same read-out and setting: then TCAAGAAWGWPLCF [Peptide-143], with 2560 nM; and TCAAGATYLWPTCL [Peptide-153], with 8420 nM.

The molecule TCSAGASYPWPLCL [Peptide-139] displayed an IC50 of 2190 nM. Same read-out and setting: the result for TCSAGAAYPWPLCL [Peptide-145] reads 7700 nM; that for TCSAGAAYSWPACF [Peptide-146], 16100 nM. Still for that read-out and setting: the result for LCAAGATYPWPLCL [Peptide-144] reads 3040 nM. Same read-out and setting: the result for LCAAGATYPWPTCL [Peptide-147] reads 8150 nM; that for TCSAGATWAWPLCF [Peptide-152], 2220 nM; that for SCSAGAHYPWPQCF [Peptide-148], 5670 nM.

For the molecule LCAAGASWPWPVCL [Peptide-138], the IC50 was found to be 3610 nM.

Take SCSAGAAYYWPWCL [Peptide-151]: the 50% inhibitory concentration (IC50) amounted to 80500 nM. The same measure, in the same setting: then TCSAGATYTWPKCF [Peptide-141], with 2220 nM.

Consider TCAAGAAWPWPQCL [Peptide-140], for which the IC50 worked out at 760 nM. Still for that read-out and setting: then TCAAGATWSWPACF [Peptide-142], with 620 nM. Still for that read-out and setting: the result for TCAAGAHYPWPACL [Peptide-154] reads 2200 nM. Same read-out and setting: then TCSAGATWPWPICL [Peptide-137], with 890 nM. With TCSAGAHYPWPICL [Peptide-150], the half-inhibitory concentration (IC50) was found to be 4760 nM. This IC50 lies about 5.3-fold higher than the previous one.
